# T1: Cyno FAP
# T1 chain: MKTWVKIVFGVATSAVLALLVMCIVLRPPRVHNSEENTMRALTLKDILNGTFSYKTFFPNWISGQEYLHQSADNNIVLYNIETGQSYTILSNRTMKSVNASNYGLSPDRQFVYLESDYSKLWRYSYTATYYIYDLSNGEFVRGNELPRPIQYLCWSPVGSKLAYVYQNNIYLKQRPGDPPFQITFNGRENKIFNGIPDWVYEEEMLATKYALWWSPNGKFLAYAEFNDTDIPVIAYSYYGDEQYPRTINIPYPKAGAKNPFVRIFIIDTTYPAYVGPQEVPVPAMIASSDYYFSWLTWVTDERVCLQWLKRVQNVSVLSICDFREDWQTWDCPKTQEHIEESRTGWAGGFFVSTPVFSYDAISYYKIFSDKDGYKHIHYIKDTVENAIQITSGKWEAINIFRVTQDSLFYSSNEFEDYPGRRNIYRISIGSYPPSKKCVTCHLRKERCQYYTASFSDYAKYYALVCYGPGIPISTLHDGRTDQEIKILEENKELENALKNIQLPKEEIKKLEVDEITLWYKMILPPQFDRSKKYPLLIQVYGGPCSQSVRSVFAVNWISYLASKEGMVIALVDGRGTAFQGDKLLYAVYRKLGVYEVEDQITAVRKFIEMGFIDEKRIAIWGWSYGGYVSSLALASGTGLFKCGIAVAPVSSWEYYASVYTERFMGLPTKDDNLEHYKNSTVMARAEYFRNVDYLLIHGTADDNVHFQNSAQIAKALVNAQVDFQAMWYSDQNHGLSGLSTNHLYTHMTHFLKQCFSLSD
# T2: Cyno
# T2 chain: T1 chain
# T3: His-tagged murine FAP (murine, UniProt P97321 26-761)
# T3 chain: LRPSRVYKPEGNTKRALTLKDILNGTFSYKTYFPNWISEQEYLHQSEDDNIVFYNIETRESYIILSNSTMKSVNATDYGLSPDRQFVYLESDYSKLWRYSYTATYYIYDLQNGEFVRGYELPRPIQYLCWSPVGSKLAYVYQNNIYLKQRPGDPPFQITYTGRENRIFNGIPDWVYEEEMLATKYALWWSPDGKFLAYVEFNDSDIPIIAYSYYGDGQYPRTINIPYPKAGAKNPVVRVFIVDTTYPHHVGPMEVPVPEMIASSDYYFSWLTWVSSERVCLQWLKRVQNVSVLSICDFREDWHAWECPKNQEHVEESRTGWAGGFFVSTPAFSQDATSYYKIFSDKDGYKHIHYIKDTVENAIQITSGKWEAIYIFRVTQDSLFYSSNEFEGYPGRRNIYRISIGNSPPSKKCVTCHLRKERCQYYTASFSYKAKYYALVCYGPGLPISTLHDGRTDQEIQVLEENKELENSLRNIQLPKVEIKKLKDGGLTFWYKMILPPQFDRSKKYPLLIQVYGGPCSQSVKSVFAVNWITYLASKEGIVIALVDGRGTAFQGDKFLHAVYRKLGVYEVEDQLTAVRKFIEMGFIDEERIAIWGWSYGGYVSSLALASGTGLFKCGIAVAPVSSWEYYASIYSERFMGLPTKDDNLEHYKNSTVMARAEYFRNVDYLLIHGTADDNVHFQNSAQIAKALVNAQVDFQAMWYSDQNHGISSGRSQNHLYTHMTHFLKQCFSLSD
# B1: XENP23936 (3F2, central-scFv) (antibody)
# chain 1: not shown
# chain 2: not shown
# chain 3: EIVLTQSPGTLSLSPGERATLSCRASQSVTSSYLAWYQQKPGQAPRLLINVGSRRATGIPDRFSGSGSGTDFTLTISRLEPEDFAVYYCQQGIMLPPTFGQGTKVEIKRTVAAPSVFIFPPSDEQLKSGTASVVCLLNNFYPREAKVQWKVDNALQSGNSQESVTEQDSKDSTYSLSSTLTLSKADYEKHKVYACEVTHQGLSSPVTKSFNRGEC
# B2: XENP23932 (29B11, central-scFv) (antibody)
# chain 1: EVQLLESGGGLVQPGGSLRLSCAASGFTFSSYAMSWVRQAPGKGLEWVSAIIGSGGITYYADSVKGRFTISRDNSKNTLYLQMNSLRAEDTAVYYCAKGWFGGFNYWGQGTLVTVSSASTKGPSVFPLAPSSKSTSGGTAALGCLVKDYFPEPVTVSWNSGALTSGVHTFPAVLQSSGLYSLSSVVTVPSSSLGTQTYICNVNHKPSDTKVDKKVEPKSCDKTHTCPPCPAPPVAGPSVFLFPPKPKDTLMISRTPEVTCVVVDVKHEDPEVKFNWYVDGVEVHNAKTKPREEEYNSTYRVVSVLTVLHQDWLNGKEYKCKVSNKALPAPIEKTISKAKGQPREPQVYTLPPSREEMTKNQVSLTCDVSGFYPSDIAVEWESDGQPENNYKTTPPVLDSDGSFFLYSKLTVDKSRWEQGDVFSCSVMHEALHNHYTQKSLSLSPGK
# chain 2: EVQLLESGGGLVQPGGSLRLSCAASGFTFSSYAMSWVRQAPGKGLEWVSAIIGSGGITYYADSVKGRFTISRDNSKNTLYLQMNSLRAEDTAVYYCAKGWFGGFNYWGQGTLVTVSSASTKGPSVFPLAPSSKSTSGGTAALGCLVKDYFPEPVTVSWNSGALTSGVHTFPAVLQSSGLYSLSSVVTVPSSSLGTQTYICNVNHKPSNTKVDKKVEPKSCGGGGSGGGGSEVQLVESGGGLVQPGGSLRLSCAASGFTFSTYAMNWVRQAPGKGLEWVGRIRSKYNNYATYYADSVKGRFTISRDDSKNTLYLQMNSLRAEDTAVYYCVRHGNFGDSYVSWFAYWGQGTLVTVSSGKPGSGKPGSGKPGSGKPGSQAVVTQEPSLTVSPGGTVTLTCGSSTGAVTTSNYANWVQQKPGKSPRGLIGGTNKRAPGVPARFSGSLLGGKAALTISGAQPEDEADYYCALWYSNHWVFGGGTKLTVLGGGGSGGGGSKTHTCPPCPAPPVAGPSVFLFPPKPKDTLMISRTPEVTCVVVDVKHEDPEVKFNWYVDGVEVHNAKTKPREEQYNSTYRVVSVLTVLHQDWLNGKEYKCKVSNKALPAPIEKTISKAKGQPREPQVYTLPPSREQMTKNQVKLTCLVKGFYPSDIAVEWESNGQPENNYKTTPPVLDSDGSFFLYSKLTVDKSRWQQGNVFSCSVMHEALHNHYTQKSLSLSPGK
# chain 3: B1 chain 3
# B3: XENP24011 (sibrotuzumab, central-scFv) (antibody)
# chain 1: QVQLVQSGAEVKKPGASVKVSCKTSRYTFTEYTIHWVRQAPGQRLEWIGGINPNNGIPNYNQKFKGRVTITVDTSASTAYMELSSLRSEDTAVYYCARRRIAYGYDEGHAMDYWGQGTLVTVSSASTKGPSVFPLAPSSKSTSGGTAALGCLVKDYFPEPVTVSWNSGALTSGVHTFPAVLQSSGLYSLSSVVTVPSSSLGTQTYICNVNHKPSDTKVDKKVEPKSCDKTHTCPPCPAPPVAGPSVFLFPPKPKDTLMISRTPEVTCVVVDVKHEDPEVKFNWYVDGVEVHNAKTKPREEEYNSTYRVVSVLTVLHQDWLNGKEYKCKVSNKALPAPIEKTISKAKGQPREPQVYTLPPSREEMTKNQVSLTCDVSGFYPSDIAVEWESDGQPENNYKTTPPVLDSDGSFFLYSKLTVDKSRWEQGDVFSCSVMHEALHNHYTQKSLSLSPGK
# chain 2: QVQLVQSGAEVKKPGASVKVSCKTSRYTFTEYTIHWVRQAPGQRLEWIGGINPNNGIPNYNQKFKGRVTITVDTSASTAYMELSSLRSEDTAVYYCARRRIAYGYDEGHAMDYWGQGTLVTVSSASTKGPSVFPLAPSSKSTSGGTAALGCLVKDYFPEPVTVSWNSGALTSGVHTFPAVLQSSGLYSLSSVVTVPSSSLGTQTYICNVNHKPSNTKVDKKVEPKSCGGGGSGGGGSEVQLVESGGGLVQPGGSLRLSCAASGFTFSTYAMNWVRQAPGKGLEWVGRIRSKYNNYATYYADSVKGRFTISRDDSKNTLYLQMNSLRAEDTAVYYCVRHGNFGDSYVSWFAYWGQGTLVTVSSGKPGSGKPGSGKPGSGKPGSQAVVTQEPSLTVSPGGTVTLTCGSSTGAVTTSNYANWVQQKPGKSPRGLIGGTNKRAPGVPARFSGSLLGGKAALTISGAQPEDEADYYCALWYSNHWVFGGGTKLTVLGGGGSGGGGSKTHTCPPCPAPPVAGPSVFLFPPKPKDTLMISRTPEVTCVVVDVKHEDPEVKFNWYVDGVEVHNAKTKPREEQYNSTYRVVSVLTVLHQDWLNGKEYKCKVSNKALPAPIEKTISKAKGQPREPQVYTLPPSREQMTKNQVKLTCLVKGFYPSDIAVEWESNGQPENNYKTTPPVLDSDGSFFLYSKLTVDKSRWQQGNVFSCSVMHEALHNHYTQKSLSLSPGK
# chain 3: not shown
# B4: XENP24461 (1A7B5) (antibody, V domains shown)
# VH: EVQLLESGGGLVQPGGSLRLSCAASGFTFSSYAMSWVRQAPGKGLEWVSGISGGGGSTYYADSVKGRFTISRDNSKNTLYLQMNSLRAEDTAVYYCAKIAHSRIGWHFDYWGQGTLVTVSS
# VL: not shown
# B5: XENP24448 (1C3A5) (antibody, V domains shown)
# VH: EVQLLESGGGLVQPGGSLRLSCAASGFTFSSYAMSWVRQAPGKGLEWVSAISGSGGGTRYADSVKGRFTISRDNSKNTLYLQMNSLRAEDTAVYYCAKHSSGFHWYFDYWGQGTLVTVSS
# VL: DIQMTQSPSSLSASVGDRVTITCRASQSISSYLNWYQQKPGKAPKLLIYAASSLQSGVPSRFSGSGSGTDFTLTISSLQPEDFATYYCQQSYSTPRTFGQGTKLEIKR
# B6: XENP24471 (1F10B5) (antibody, V domains shown)
# VH: EVQLLESGGGLVQPGGSLRLSCAASGFTFSSYGMSWVRQAPGKGLEWVSGISGSGSSTHYADSVKGRFTISRDNSKNTLYLQMNSLRAEDTAVYYCAKGTTGLSYFDYWGQGTLVTVSS
# VL: not shown
# B7: XENP24466 (1F12B5) (antibody, V domains shown)
# VH: EVQLLESGGGLVQPGGSLRLSCAASGFTFSSYAMTWVRQAPGKGLEWVSTISSSGGTTYYADSVKGRFTISRDNSKNTLYLQMNSLRAEDTAVYYCAKYPSYYSVTGFDYWGQGTLVTVSS
# VL: not shown
# B8: XENP24463 (1F11B5) (antibody, V domains shown)
# VH: EVQLLESGGGLVQPGGSLRLSCAASGFTFSSYAMNWVRQAPGKGLEWVSGISGGGSSTTYYADSVKGRFTISRDNSKNTLYLQMNSLRAEDTAVYYCAKPYYWVDSFFDYWGQGTLVTVSS
# VL: not shown
# B9: XENP24460 (1A1B5) (antibody, V domains shown)
# VH: EVQLLESGGGLVQPGGSLRLSCAASGFTFSSYAMNWVRQAPGKGLEWVSTISSSGSRTYYADSVKGRFTISRDNSKNTLYLQMNSLRAEDTAVYYCAKGLVASAPFDYWGQGTLVTVSS
# VL: not shown
# B10: XENP24462 (1F4B5) (antibody, V domains shown)
# VH: EVQLLESGGGLVQPGGSLRLSCAASGFTFSRYAMTWVRQAPGKGLEWVSSISASGGSTYYADSVKGRFTISRDNSKNTLYLQMNSLRAEDTAVYYCAKTFSGYAHYDFDYWGQGTLVTVSS
# VL: not shown
# B11: XENP23534 (sibrotuzumab) (antibody, V domains shown)
# VH: QVQLVQSGAEVKKPGASVKVSCKTSRYTFTEYTIHWVRQAPGQRLEWIGGINPNNGIPNYNQKFKGRVTITVDTSASTAYMELSSLRSEDTAVYYCARRRIAYGYDEGHAMDYWGQGTLVTVSS
# VL: DIVMTQSPDSLAVSLGERATINCKSSQSLLYSRNQKNYLAWYQQKPGQPPKLLIFWASTRESGVPDRFSGSGFGTDFTLTISSLQAEDVAVYYCQQYFSYPLTFGQGTKVEIKR
# Target: T4, His-tagged human FAP (human, UniProt Q12884 26-760)
# Experiment: Octet; apparent KD
row,Kd [nM],Binder
1,0.323,B1
2,< 0.001,B2
3,0.0308,B3

# Target: T1, Cyno FAP
# Experiment: Octet; apparent KD
row,Kd [nM],Binder
1,0.187,B1
2,0.0229,B2
3,0.0149,B3

# Target: T2, Cyno
# Experiment: Octet
row,Kd [nM],Binder
1,1.11,B4
2,5.01,B5
3,6.93,B6
4,< 0.001,B7
5,0.0224,B8
6,0.458,B9
7,0.53,B10
8,< 0.001,B11

# Target: T4, His-tagged human FAP
# Experiment: Octet
row,Kd [nM],Binder
1,1.02,B4
2,4.54,B5
3,9.13,B6
4,< 0.001,B7
5,< 0.001,B8
6,0.515,B9
7,0.372,B10
8,< 0.001,B11

# Target: T3, His-tagged murine FAP
# Experiment: Octet
row,Kd [nM],Binder
1,4.52,B6
2,45.5,B8
3,33,B10

# — patent US20210253736A1 (published 2021)
